Data reported in the RNAGym collection of RNA variant scans (doi:10.1073/pnas.2313332121).

B1: TPR t1 (parent)
chain: GACCAAUCUGCCCUCAGAGCUCGAGAACAUCUUCGGAUGCAGAGGAGGCAGGCUUCGGUGGCGCGAUAGCGCCAACGUCCUCAACCUCCAAUGCAUCCCACCACAUGAUGAUGCCUGAAGAGCCUUGGUUUUUUG

Variants of: B1
Experiment: polymerase ribozyme fitness, log enrichment relative to wild type (log ratio); higher = more active; in vitro selection for triplet polymerase activity
Summary of the method: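 Input and output libraries were sequenced on Illumina after a single in vitro selection round, run in triplicate on PCR-built, transcribed mutant libraries of each subunit of a heterodimeric triplet polymerase ribozyme. Selection annealed libraries to a biotinylated primer, the partner subunit and triplets, incubated them frozen at −7 °C, then gel-excised extended constructs for streptavidin-bead capture and RT-PCR. Genotypes with ≥10 input reads and ≥1 read per output were kept. Fitness is the logarithm, taken in base 2, of genotype enrichment divided by wild-type enrichment, using inverse-variance-weighted replicate averages.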
In the case of GACCAAUCUGCCCUCAGAGCUCGAGAACAUCUUCGGAUGCAGAGGAGGGAGGCUUCGGUGGCGCGAUAGCGCCAACGUCCUCAACCUCCAAUGCAUCCCACCACAUGAUGAUGCCUGAAGAACCUUGGUUUUUUG, the “polymerase ribozyme fitness (log ratio)” value is reported as -0.99. In the case of GACCAAUCUGCCCUCAGAGCUCGAGAACAUCUUCGGAUGCAGAGGAGGGAGAUUUCGGUGGCGCGAUAGCGCCAACGUCCUCAGUCUCCAAUGUAUCCCACCACAUGAUGAUGCCUGAAGAGCCUUGGUUUUUUG, the “polymerase ribozyme fitness (log ratio)” value is reported as -1.34. With GACCAAUCUGCCCUCAGAGCUCGAGAACAUCUUCGGAUGCAGAGGAGGGAGCCUUCGGUGGCGCGAUAGCGCCAACGUCCUCAACCUCCAAUGCAUCCCACCACAUGAUGAUGCCUGAAGAGCCUUGGUUUUUUG the “polymerase ribozyme fitness (log ratio)” value was -0.352. With GACCAAUCUGCCCUCAGAGCUCGAGAACAUCUUCGGAUGCAGAGGAGGGAGGCUUCGGUGGCGCGAUAGCGCCAACGUCCUCAACCUCCAAUGCAUCCCACCACAUGAUGAUGCCUGAAGAGACUUGGUUUUUUG the “polymerase ribozyme fitness (log ratio)” value was -0.0129. For GACCAAUCUGCCCUCAGAGCUCGAGAACAUCUUCGGAUGCAGAGGAGGGAGGCUUCGGUGGCGCGAUAGCGCCAACGUCCUCAACCUCCAAUGCAUCCCACCACAUGAUGAUGCCUGAAGAGGCUUGGUUUUUUG, the “polymerase ribozyme fitness (log ratio)” value was 1.3. In the case of GACCAAUCUGCCCUCAGAGCUCGAGAACAUCUUCGGAUGCAGAGGAGGGAGGCUUCGGUGACGCGAUAGCGCCAACGUCCUCAACCUCCAAUGCCUCCCACCACAUGAUGAUGCCUGAAGAGCCUUGGUUUUUUG, the “polymerase ribozyme fitness (log ratio)” value is reported as -1.32. In the case of GACCAAUCUGCCCUCAGAGCUCGAGAACAUCUUCGGAUGCAGAGGAGGGAGGCUUCGGUGGCGCGAUAGCACCAACGUCCUCAACCUCCAAUGCAUCCCACCACAUGAUGAUGCCUGAAGAGCGUUGGUUUUUUG, the “polymerase ribozyme fitness (log ratio)” value is reported as 0.642. With GACCAAUCUGCCCUCAGAGCUCGAGAACAUCUUCGGAUGCAGAGGAGGGAGGCUUCGGUGACGCGAUAGCGCCAACGUCCCCAACCUCCAAUGCAUCCCACCACAUGAUGAUGCCUGAACAGCCUUGGUUUUUUG the “polymerase ribozyme fitness (log ratio)” value was -3.67. With GACCAAUCUGCCCUCAGAGCUCGAGAACAUCUUCGGAUGCAGAGGAGGGAGGCUUCGGUGGCGCGAUAGCGCCAACGUCCUCAACCUCCAAUGCAUCCAACCACAUGAUGAUGCCUGAACAUCCUUGGUUUUUUG the “polymerase ribozyme fitness (log ratio)” value was -6.79. In the case of GACCAAUCUGCCCUCAGAGCUCGAGAACAUCUUCGGAUGCAGAGGAGGGAGGCUUCGGUGGCCCGAUAGCGCCAACGUCCUCAACCUCCAAUGCAUCCCACCACAUGAUGGUGCCUGAAAAGCCUUGGUUUUUUG, the “polymerase ribozyme fitness (log ratio)” value is reported as -2.1. In the case of GACCAAUCUGCCCUCAGAGCUCGAGAACAUCUUCGGAUGCAGAGGAGGGAGACUUCGGUGGCGCGAUAGAGCCAACGUCCUCAACCUCCAAUGCACCCCACCACAUGAUGAUGCCUGAAGAGCCUUGGUUUUUUG, the “polymerase ribozyme fitness (log ratio)” value is reported as -4.29. In the case of GACCAAUCUGCCCUCAGAGCUCGAGAACAUCUUCGGAUGCAGAGGAGGGAGGCUUCGGUGGCUCGAUAGCGCCAACGUCCUCAACCUCCAAUGCAGCCCACCACAUGAUGAUGCCUGAAGAGCCUUGGUUUUUUG, the “polymerase ribozyme fitness (log ratio)” value is reported as -2.68. In the case of GACCAAUCUGCCCUCAGAGCUCGAGAACAUCUUCGGAUGCAGAGGAGGGAGGCUUCGGUUGCGCGAUAGCGCUAACGUCCUCAACCUCCAAUGCAUCCCACCACAUGAUGAUGCCUGAAGAGCCUUGUUUUUUUG, the “polymerase ribozyme fitness (log ratio)” value is reported as -3.07. With GACCAAUCUGCCCUCAGAGCUCGAGAACAUCUUCGGAUGCAGAGGAGGGAGGCUUCGGUGGCGCGAUAGCGCCAACGUCCUCAACCUCCAAUGCAUCCCACCACAUGAUGAUGCCUGAACAGCCUUGGUUUUUUG the “polymerase ribozyme fitness (log ratio)” value was 1.11. In the case of GACCAAUCUGCCCUCAGAGCUCGAGAACAUCUUCGGAUGCAGAGGAGGGAGGCUUCGGUGGCGCGAUAGCGCCAACGUCCUCAACCUCCAAUGCAUCCCACCACAUGAUGAUGCCUGAAAAGCCUUGGUUUUUUG, the “polymerase ribozyme fitness (log ratio)” value is reported as 0.175. For GACCAAUCUGCCCUCAGAGCUCGAGAACAUCUUCGGAUGCAGAGGAGGGAGGCUUCGGUGGCGCGAUAGCGCCAACGUCCUCAACCUCCAAUGCAUGCCACCACAUGAUGAUGCCUGAAGAGCCUUGGUUUUUUG, the “polymerase ribozyme fitness (log ratio)” value was -4.99. With GACCAAUCUGCCCUCAGAGCUCGAGAACAUCUUCGGAUGCAGAGGAGGGAGGCUUCGGUGGCGCGAUAUCGCCAACGUCCUCAACCUCCAAUGUAUCCCACCACAUGAUGAUGACUGAAAAGCCUUGGUUUUUUG the “polymerase ribozyme fitness (log ratio)” value was -1.33. With GACCAAUCUGCCCUCAGAGCUCGAGAACAUCUUCGGAUGCAGAGGAGGGAGGCUUCGGUGGCGCGAUAGCGCCAACUUCCUCAACCUCCAAUGCGUCCCACCACAUGAUGAUGCCUGAAGAGCCUUGGUUUUUUG the “polymerase ribozyme fitness (log ratio)” value was -1.23. With GACCAAUCUGCCCUCAGAGCUCGAGAACAUCUUCGGAUGCAGAGGAGGGAGGCUUCGGUUGCGCGAUAGCGCCAACGUCCUCAACCUCCAAUGCAGCCCACCACAUGAUGAUGCCUGAAGAGCCUUGGUUUUUUG the “polymerase ribozyme fitness (log ratio)” value was -0.746. With GACCAAUCUGCCCUCAGAGCUCGAGAACAUCUUCGGAUGCAGAGGAGGGAGGCUUCUGUGGCGCGAUAGCGCCAACGUCCUCUACCUCCAAUGCAUCCCACCACAUGAUAAUGCCUGAAGGGCCUUGGUUUUUUG the “polymerase ribozyme fitness (log ratio)” value was -1.99. With GACCAAUCUGCCCUCAGAGCUCGAGAACAUCUUCGGAUGCAGAGGAGGGAAGCUUCGGUGCCGCGAUAGCGCCAACGUCCUCAACCUCCAAUGUAUCCCACCACAUGAUGAUGCCUGAAGAGCCUUGGUUUUUUG the “polymerase ribozyme fitness (log ratio)” value was -3.22. With GACCAAUCUGCCCUCAGAGCUCGAGAACAUCUUCGGAUGCAGAGGAGGGAGGCUUCGGUGGCGCGAUACCGCCAACGUCCUCAACCUCCAAUGCAUCCCACCACAUGAUGAUGCCUGAAGAGCCGUGGUUUUUUG the “polymerase ribozyme fitness (log ratio)” value was -3.42. With GACCAAUCUGCCCUCAGAGCUCGAGAACAUCUUCGGAUGCAGAGGAGGGAGGCUUCGGUGGCGCGAUAGCGCCAACGUCCUCAACCUCCAAUCCAUCCCACCACAUGAUGAUGCCUGAAGAGCCUUGGUUUUUUG the “polymerase ribozyme fitness (log ratio)” value was -1.06. With GACCAAUCUGCCCUCAGAGCUCGAGAACAUCUUCGGAUGCAGAGGAGGGAGGCUUCGGUGGCGCGAUAGCGCCAACGUCCUCAACCUCCAAUUCAUCCCACCACAUGAUGAUGCCUGAAGAGCCUUGGUUUUUUG the “polymerase ribozyme fitness (log ratio)” value was -1.49. With GACCAAUCUGCCCUCAGAGCUCGAGAACAUCUUCGGAUGCAGAGGAGGGAGGCUUCGGUGGCGCGAUAGCGCCAACGUCCUCAACCUCCAAUGCAUCCCAGCACAUGAUGAUGCCUGAAGAGCCUUGGUUUUUUG the “polymerase ribozyme fitness (log ratio)” value was -1.92. With GACCAAUCUGCCCUCAGAGCUCGAGAACAUCUUCGGAUGCAGAGGAGGGAGGCUUCGGUGGCGCGAUAGCGCCAACGUCCUCAACCUCCAAUGCAUCCCACCACAUGAUGAUGCCUGAAGAUCGUUGGUUUUUUG the “polymerase ribozyme fitness (log ratio)” value was -1.12. With GACCAAUCUGCCCUCAGAGCUCGAGAACAUCUUCGGAUGCAGAGGAGGGAGGCUUCGGUGGCGCGAUAGCGCCAACGUCCUCAACCUCCAAUGCAUCCCACCACAUGAUGAUACCUGAAGAGCCUUGGUUUUUUG the “polymerase ribozyme fitness (log ratio)” value was -1.08. In the case of GACCAAUCUGCCCUCAGAGCUCGAGAACAUCUUCGGAUGCAGAGGAGGGAGGCUUCGGUGGCGCGAUAGCGCCAACGUCCUCAACCUCCAAUGCAUCCCACCACAUGAUGAUUCCUGAAGAGCCUUGGUUUUUUG, the “polymerase ribozyme fitness (log ratio)” value is reported as -2.52. With GACCAAUCUGCCCUCAGAGCUCGAGAACAUCUUCGGAUGCAGAGGAGGGAGGCUUCCCUGGCUCGAUAGCGCCAACGUCCUCAACCUCCAAUGCAUCCCACCACAUGAUGAUGCCUGAAGAGCCUUGGUUUUUUG the “polymerase ribozyme fitness (log ratio)” value was -3.06. In the case of GACCAAUCUGCCCUCAGAGCUCGAGAACAUCUUCGGAUGCAGAGGAGGGAGGCUUCGGUGGCGCGAUAGCUCCAACGUCCUCAACCUCCAAUGCAUCCCACCACAUGAUGAUGCCUGAAGAGCCUUGGUUUUUUG, the “polymerase ribozyme fitness (log ratio)” value is reported as -1.7. In the case of GACCAAUCUGCCCUCAGAGCUCGAGAACAUCUUCGGAUGCAGAGGAGGGAGGCUUCGGUGGCGCGAUAGCACCAACGUCCUCAACCUCCAAUGCAUCCCACCACAUGAUGAUGCCUGAAGAGCCUUGGUUUUUUG, the “polymerase ribozyme fitness (log ratio)” value is reported as -0.461. In the case of GACCAAUCUGCCCUCAGAGCUCGAGAACAUCUUCGGAUGCAGAGGAGGGAGGCUUCGGUGGCGCGAUAGCGCCAACGUCCUCAACCUCCAAUGCAUCCCACCACAUGAUGAUGCCUGAAGAGCAUUGGUUUUUUG, the “polymerase ribozyme fitness (log ratio)” value is reported as 1.39. With GACCAAUCUGCCCUCAGAGCUCGAGAACAUCUUCGGAUGCAGAGGAGGGAGGCUUCGGUGGCGCGAUAGCGCCAACUACCUCAAACUCCAAUGCAUCCCACCACAUGAUGAUGCCUGAAGAGCCUUGGUUUUUUG the “polymerase ribozyme fitness (log ratio)” value was -1.63. In the case of GACCAAUCUGCCCUCAGAGCUCGAGAACAUCUUCGGAUGCAGAGGAGGGAGUCUUGGGUGGCGCGAUAGCGGCAACGUCCUCAACCUCCAAUGCAUCCCACCACAUGAUGAUGCCUGAAGAGCCUUGGUUUUUUG, the “polymerase ribozyme fitness (log ratio)” value is reported as -7.2. For GACCAAUCUGCCCUCAGAGCUCGAGAACAUCUUCGGAUGCAGAGGAGGGAGGCUUCUGUGGCGCGAUAGCGCCAACGUCCUCAACCUCCAAUGCAUCCCACCACAUGAUGAUGCCUGAGGAGCCUUGGUUUUGUG, the “polymerase ribozyme fitness (log ratio)” value was -0.101. In the case of GACCAAUCUGCCCUCAGAGCUCGAGAACAUCUUCGGAUGCAGAGGAGGGAGGCUUCGGUGGCGCGAUAGCGCCAACGUCCUCAACCUCCAAUGCAUCCCAUCACAUGAUGAUGCCUGAAGAGCCUUGGUUCUUUG, the “polymerase ribozyme fitness (log ratio)” value is reported as -0.189. With GACCAAUCUGCCCUCAGAGCUCGAGAACAUCUUCGGAUGCAGAGGAGGGAGGCUUCGGUGGCGCGAUAGCGCCAACGUCCUCAACCUCCAAUGCAUCCCACCACAUGAUUAUGCCUGAAGAGCCUUGGUUUUUUG the “polymerase ribozyme fitness (log ratio)” value was -2.51. With GACCAAUCUGCCCUCAGAGCUCGAGAACAUCUUCGGAUGCAGAGGAGGGAGGCUUCGGUGGCGCGAUAGCGCCAACGUCCUCAACCUCCAAUUAAUCCCACCACAUGAUGAUGCCUGAAGAGCCUUGGUUUUUUG the “polymerase ribozyme fitness (log ratio)” value was -3.18. With GACCAAUCUGCCCUCAGAGCUCGAGAACAUCUUCGGAUGCAGAGGAGGGAGGCUUCGGUGGCGCGAUAGCGCCAACGUCCUCAACCUCCAAUGCAUCCCACCACAUGAUAAUGCCUGAAGCGCCUUGGUUUUUUG the “polymerase ribozyme fitness (log ratio)” value was -1.76. In the case of GACCAAUCUGCCCUCAGAGCUCGAGAACAUCUUCGGAUGCAGAGGAGGGAGGCUUCGGUGGCGCGAUAGCACCAACGUCCUCAACCUCCAAUGCAUCCCACCACAUGAUGAAGCCUGAAGAGCCUUGGUUUUUUG, the “polymerase ribozyme fitness (log ratio)” value is reported as -1.11. With GACCAAUCUGCCCUCAGAGCUCGAGAACAUCUUCGGAUGCAGAGGAGGGAGGCUUCGGUGGCACGAUAGCGCCAACGUCCUCAACCACCAAUGCAUCCCACCACAUGAUGAUGCCUGAAGAGCCUUGGUUUUUUG the “polymerase ribozyme fitness (log ratio)” value was -2.53. With GACCAAUCUGCCCUCAGAGCUCGAGAACAUCUUCGGAUGCAGAGGAGGGAGGCUUCGCUGGCGCGAUAGCGCCAACGUACUCAACCUCCAAUGCAUCCCACCACAUGAUGAUGCCUGAAGAGCCUUGGUUUUUUG the “polymerase ribozyme fitness (log ratio)” value was -5.19.
